# The supplement of paper PMC9112550, “Optimization of the antimicrobial peptide Bac7 by deep mutational scanning” (BMC Biology, 2022)
# Test system: Escherichia coli TOP10
# Experiment: shrunken log2 fold change of peptide-encoding DNA abundance (4.5 h post-induction vs induction); higher = less antimicrobial activity (less host growth inhibition)
# Conditions: time post-induction: 4.5 h; library: site-saturation at positions 5, 18, 19, 20
# 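Also: peptides expressed intracellularly from a pBAD plasmid library in pooled LB shake-flask culture, induced with 0.3% L-arabinose, DNA abundance read by NGS, three biological replicates, DESeq2 with apeglm shrinkage.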
row,Sequence,shrunken log2 fold change
1,RRIRVRPPRLPRPRPRPMIRPRP,-0.147
2,RRIRPRPPRLPRPRPRPPMYPRP,-0.368
3,RRIRGRPPRLPRPRPRPCCIPRP,0.214
4,RRIRARPPRLPRPRPRPKVYPRP,-0.0122
5,RRIRGRPPRLPRPRPRPMAAPRP,1.4
6,RRIRRRPPRLPRPRPRPSCSPRP,-0.163
7,RRIRFRPPRLPRPRPRPWNKPRP,-0.722
8,RRIRPRPPRLPRPRPRPEINPRP,-0.264
9,RRIRQRPPRLPRPRPRPHLNPRP,-0.29
10,RRIRFRPPRLPRPRPRPICWPRP,-0.134
11,RRIRNRPPRLPRPRPRPWVEPRP,-0.109
12,RRIRIRPPRLPRPRPRPSWNPRP,-0.49
13,RRIRMRPPRLPRPRPRPMRPPRP,1.79
14,RRIRGRPPRLPRPRPRPCATPRP,2.7
15,RRIRCRPPRLPRPRPRPWPIPRP,-0.369
16,RRIRARPPRLPRPRPRPTGFPRP,0.105
17,RRIRERPPRLPRPRPRPRTSPRP,0.0838
18,RRIRSRPPRLPRPRPRPPQFPRP,-0.103
19,RRIRKRPPRLPRPRPRPFYGPRP,-0.0306
20,RRIRSRPPRLPRPRPRPFHTPRP,-0.232
21,RRIRKRPPRLPRPRPRPDYSPRP,-0.168
22,RRIRDRPPRLPRPRPRPQPFPRP,-0.0264
23,RRIRVRPPRLPRPRPRPFYMPRP,-0.136
24,RRIRFRPPRLPRPRPRPTADPRP,0.359
25,RRIRMRPPRLPRPRPRPDTEPRP,0.33

row,Sequence,shrunken log2 fold change
1,RRIRMRPPRLPRPRPRPKWVPRP,0.466
2,RRIRVRPPRLPRPRPRPCLPPRP,-0.219
3,RRIRMRPPRLPRPRPRPPVKPRP,0.512
4,RRIRIRPPRLPRPRPRPEKFPRP,-0.247
5,RRIRKRPPRLPRPRPRPEKFPRP,-0.0568
6,RRIRARPPRLPRPRPRPYFTPRP,-0.71
7,RRIRYRPPRLPRPRPRPVYFPRP,-1.42
8,RRIRNRPPRLPRPRPRPRCEPRP,0.357
9,RRIRARPPRLPRPRPRPANSPRP,0.329
10,RRIRTRPPRLPRPRPRPAGVPRP,0.107
11,RRIRGRPPRLPRPRPRPKLLPRP,0.84
12,RRIRERPPRLPRPRPRPDMIPRP,0.0157
13,RRIRIRPPRLPRPRPRPQNTPRP,-0.86
14,RRIRKRPPRLPRPRPRPTWWPRP,0.0302
15,RRIRVRPPRLPRPRPRPFCVPRP,-0.0102
16,RRIRWRPPRLPRPRPRPHVIPRP,-0.13
17,RRIRGRPPRLPRPRPRPQCDPRP,0.479
18,RRIRIRPPRLPRPRPRPEVWPRP,0.217
19,RRIRTRPPRLPRPRPRPNYKPRP,-0.823
20,RRIRGRPPRLPRPRPRPCAPPRP,0.826
21,RRIRLRPPRLPRPRPRPCDEPRP,-0.0824
22,RRIRCRPPRLPRPRPRPWMDPRP,-0.169
23,RRIRPRPPRLPRPRPRPHCRPRP,-0.198
24,RRIRDRPPRLPRPRPRPGAKPRP,0.592
25,RRIRGRPPRLPRPRPRPFHMPRP,-0.0599

row,Sequence,shrunken log2 fold change
1,RRIRTRPPRLPRPRPRPHPTPRP,0.106
2,RRIRIRPPRLPRPRPRPEWAPRP,0.0716
3,RRIRRRPPRLPRPRPRPQLKPRP,0.0988
4,RRIRCRPPRLPRPRPRPVSVPRP,-0.0739
5,RRIRIRPPRLPRPRPRPSFWPRP,0.059
6,RRIRWRPPRLPRPRPRPCMQPRP,0.0574
7,RRIRLRPPRLPRPRPRPWPLPRP,-0.039
8,RRIRYRPPRLPRPRPRPRVMPRP,-0.155
9,RRIRCRPPRLPRPRPRPIAFPRP,-0.195
10,RRIRHRPPRLPRPRPRPTFYPRP,-0.183
11,RRIRSRPPRLPRPRPRPFDDPRP,-0.0842
12,RRIRRRPPRLPRPRPRPYAAPRP,0.395
13,RRIRCRPPRLPRPRPRPLELPRP,0.172
14,RRIRDRPPRLPRPRPRPVFCPRP,0.0325
15,RRIRKRPPRLPRPRPRPQNIPRP,-0.21
16,RRIRARPPRLPRPRPRPHLCPRP,0.202
17,RRIRCRPPRLPRPRPRPWVVPRP,-0.168
18,RRIRMRPPRLPRPRPRPHTDPRP,0.0445
19,RRIRGRPPRLPRPRPRPCLTPRP,0.496
20,RRIRPRPPRLPRPRPRPHSVPRP,-0.213
21,RRIRERPPRLPRPRPRPSEMPRP,-0.16
22,RRIRCRPPRLPRPRPRPAEPPRP,0.368
23,RRIRWRPPRLPRPRPRPCFDPRP,0.172
24,RRIRGRPPRLPRPRPRPRKVPRP,0.741
25,RRIRSRPPRLPRPRPRPNMIPRP,-0.429

row,Sequence,shrunken log2 fold change
1,RRIRMRPPRLPRPRPRPWCEPRP,-0.0233
2,RRIRSRPPRLPRPRPRPHAIPRP,-0.144
3,RRIRLRPPRLPRPRPRPKWYPRP,-0.299
4,RRIRIRPPRLPRPRPRPGWLPRP,-0.0831
5,RRIRQRPPRLPRPRPRPSLSPRP,-0.227
6,RRIRQRPPRLPRPRPRPLLLPRP,-0.363
7,RRIRPRPPRLPRPRPRPKPDPRP,0.0452
8,RRIRWRPPRLPRPRPRPEIGPRP,0.0225
9,RRIRKRPPRLPRPRPRPLIYPRP,-0.213
10,RRIRTRPPRLPRPRPRPMNMPRP,-0.24
11,RRIRVRPPRLPRPRPRPNYPPRP,-0.515
12,RRIRWRPPRLPRPRPRPSPLPRP,-0.26
13,RRIRNRPPRLPRPRPRPGNHPRP,-0.265
14,RRIRPRPPRLPRPRPRPAYLPRP,-0.317
15,RRIRPRPPRLPRPRPRPAMHPRP,0.367
16,RRIRFRPPRLPRPRPRPKSRPRP,-0.0938
17,RRIRYRPPRLPRPRPRPMNNPRP,-1.28
18,RRIRQRPPRLPRPRPRPCNSPRP,-0.0261
19,RRIRDRPPRLPRPRPRPADMPRP,-0.119
20,RRIRWRPPRLPRPRPRPEGAPRP,1.13
21,RRIRFRPPRLPRPRPRPQELPRP,-0.0341
22,RRIRIRPPRLPRPRPRPTLMPRP,-0.0204
23,RRIRFRPPRLPRPRPRPLILPRP,-0.739
24,RRIRFRPPRLPRPRPRPWPKPRP,0.125
25,RRIRLRPPRLPRPRPRPWMRPRP,0.892

row,Sequence,shrunken log2 fold change
1,RRIRPRPPRLPRPRPRPQFNPRP,-0.5
2,RRIRKRPPRLPRPRPRPATDPRP,0.00132
3,RRIRHRPPRLPRPRPRPPIKPRP,-0.16
4,RRIRKRPPRLPRPRPRPNVEPRP,0.192
5,RRIRKRPPRLPRPRPRPCPQPRP,0.242
6,RRIRERPPRLPRPRPRPEYFPRP,-0.0105
7,RRIRVRPPRLPRPRPRPSKWPRP,-0.283
8,RRIRNRPPRLPRPRPRPNMRPRP,0.23
9,RRIRTRPPRLPRPRPRPLHAPRP,0.143
10,RRIRCRPPRLPRPRPRPDDTPRP,-0.36
11,RRIRRRPPRLPRPRPRPSPYPRP,0.0987
12,RRIRSRPPRLPRPRPRPVYWPRP,-0.175
13,RRIRVRPPRLPRPRPRPYIKPRP,-0.982
14,RRIRNRPPRLPRPRPRPEIWPRP,0.0992
15,RRIRERPPRLPRPRPRPHDAPRP,-0.437
16,RRIRHRPPRLPRPRPRPENFPRP,-0.0249
17,RRIRTRPPRLPRPRPRPSFHPRP,-0.772
18,RRIRIRPPRLPRPRPRPYHSPRP,-0.00112
19,RRIRRRPPRLPRPRPRPDHEPRP,0.152
20,RRIRCRPPRLPRPRPRPGTHPRP,-0.243
21,RRIRTRPPRLPRPRPRPAPLPRP,0.368
22,RRIRFRPPRLPRPRPRPDDIPRP,-0.0253
23,RRIRDRPPRLPRPRPRPYHTPRP,-0.403
24,RRIRMRPPRLPRPRPRPLSYPRP,0.134
25,RRIRHRPPRLPRPRPRPECHPRP,-0.303

row,Sequence,shrunken log2 fold change
1,RRIRKRPPRLPRPRPRPKYGPRP,-0.206
2,RRIRSRPPRLPRPRPRPVIQPRP,-0.178
3,RRIRRRPPRLPRPRPRPVKQPRP,-0.0104
4,RRIRTRPPRLPRPRPRPFPQPRP,-0.042
5,RRIRWRPPRLPRPRPRPGKYPRP,-0.227
6,RRIRERPPRLPRPRPRPHCRPRP,-0.168
7,RRIRSRPPRLPRPRPRPVVSPRP,0.151
8,RRIRGRPPRLPRPRPRPAANPRP,0.911
9,RRIRGRPPRLPRPRPRPGAIPRP,1.44
10,RRIRGRPPRLPRPRPRPETSPRP,1.68
11,RRIRFRPPRLPRPRPRPRRHPRP,0.822
12,RRIRIRPPRLPRPRPRPKCSPRP,0.0422
13,RRIRERPPRLPRPRPRPCIYPRP,-0.328
14,RRIRMRPPRLPRPRPRPMNDPRP,0.25
15,RRIRLRPPRLPRPRPRPFSFPRP,-0.388
16,RRIRFRPPRLPRPRPRPNFEPRP,-0.0264
17,RRIRPRPPRLPRPRPRPAIAPRP,0.194
18,RRIRPRPPRLPRPRPRPHRFPRP,0.645
19,RRIRPRPPRLPRPRPRPSGSPRP,0.0191
20,RRIRLRPPRLPRPRPRPIILPRP,-1.48
21,RRIRCRPPRLPRPRPRPPHPPRP,0.339
22,RRIRSRPPRLPRPRPRPYVFPRP,-0.545
23,RRIRCRPPRLPRPRPRPAFFPRP,0.0268
24,RRIRQRPPRLPRPRPRPYFHPRP,-0.563
25,RRIRSRPPRLPRPRPRPWCTPRP,-0.255
